Experimental data as given in PMC6576074, “NF‐YB1‐YC12‐bHLH144 complex directly activates Wx to regulate grain quality in rice (Oryza sativa L.)”.

How the values were obtained:
LGF2‐pBT = assay: two-hybrid; bacterial two-hybrid (BacterioMatch II) in E. coli XL1‐Blue MRF′; NF‐YB1‐pTRG and NF‐YCs‐pBT; growth on M9/+Cm/+Ter/+3‐AT/+Strep/‐HIS against M9/+Cm/+Ter; intensity = ratio (%) of colony numbers
[1] = molecular target: HIS‐NF‐YB1 (rice (Oryza sativa L.)) (UniProt Q6Z348)
[2] = molecular target: GST‐NF‐YC12 (rice (Oryza sativa L.))
[3] = molecular target: NF‐YC12‐pBT (rice (Oryza sativa L.)); assay: two-hybrid; bacterial two-hybrid (BacterioMatch II) in E. coli XL1‐Blue MRF′; NF‐YB1‐pTRG and NF‐YCs‐pBT; growth on M9/+Cm/+Ter/+3‐AT/+Strep/‐HIS against M9/+Cm/+Ter; intensity = ratio (%) of colony numbers
HIS-NF-YB1 = molecular target: T1, HIS-NF-YB1 (Oryza sativa L. (rice; cultivar not …, UniProt Q6Z348 1-186); assay: EMSA; EMSA: Beyotime EMSA/Gel-shift binding buffer (composition and pH not given), 10 uL, 2 nmol biotin probe, 5 nmol protein, 20 min preincubation + 20 min at 25 C; details: protein: recombinant; tags: N-terminal His (pET28a); label: biotin; blunt
T1 sequence: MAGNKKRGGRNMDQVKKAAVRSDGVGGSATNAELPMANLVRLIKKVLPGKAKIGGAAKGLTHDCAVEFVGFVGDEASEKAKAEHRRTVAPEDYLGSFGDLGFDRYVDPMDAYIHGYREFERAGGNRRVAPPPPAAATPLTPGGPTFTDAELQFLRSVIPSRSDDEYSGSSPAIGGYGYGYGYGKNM

**Q.** Gal11‐pTRG was tested. Which interaction intensity (ratio of colony numbers on selective and non-selective medium) (LGF2‐pBT) did it give?
**A.** The interaction intensity (ratio of colony numbers on selective and non-selective medium) was 33.8%.

**Q.** How did the half-life of HIS‐NF‐YB1 in a cell-free degradation assay with GST‐NF‐YC12 and HIS‐bHLH144‐FLAG added (heterotrimer); around 15 min for HIS‐NF‐YB1 alone [1] turn out when HIS‐bHLH144‐FLAG (natural protein) was run?
**A.** Its half-life of HIS‐NF‐YB1 in a cell-free degradation assay with GST‐NF‐YC12 and HIS‐bHLH144‐FLAG added (heterotrimer); around 15 min for HIS‐NF‐YB1 alone is 40 min.

B1: HIS‐NF‐YB1 (natural protein)
chain: T1 sequence
**Q.** B1 was tested. Which half-life of HIS‐NF‐YB1 in a cell-free degradation assay (total protein extract of 10 DAG rice seedlings) with GST‐NF‐YC12 added; around 15 min for HIS‐NF‐YB1 alone [2] did it give?
**A.** The half-life of HIS‐NF‐YB1 in a cell-free degradation assay (total protein extract of 10 DAG rice seedlings) with GST‐NF‐YC12 added; around 15 min for HIS‐NF‐YB1 alone was 30 min.

B2: NF‐YB1‐pTRG (natural protein)
chain: T1 sequence
**Q.** For B2, which interaction intensity (ratio of colony numbers on selective and non-selective medium) [3] is on record?
**A.** Its interaction intensity (ratio of colony numbers on selective and non-selective medium) is 63.7%.

B3: Wx promoter probe 4 (dsDNA)
DNA 1: CAACGTGCCAACGTACGCACGCTAACGTGAGTCATGTAGCGTAATTCCAAGTTCTTTTTT
DNA 2: AAAAAAGAACTTGGAATTACGCTACATGACTCACGTTAGCGTGCGTACGTTGGCACGTTG
**Q.** Does B3 bind (HIS-NF-YB1)?
**A.** Result: no binding

B4: Wx promoter probe 5 (dsDNA)
DNA 1: AGATCATATCGTCTCCAGACTCAAGTGCACGTTGATCGTTCGCTCACTGCTTCATCGATC
DNA 2: GATCGATGAAGCAGTGAGCGAACGATCAACGTGCACTTGAGTCTGGAGACGATATGATCT
**Q.** Does B4 bind (HIS-NF-YB1)?
**A.** Result: no binding

B5: Wx promoter probe 2 (dsDNA)
DNA 1: CAGGCACTCAGCTCGCTGCTGGTCCCGCACGTCGCCACACGATCGACGTACGCACGCGAG
DNA 2: CTCGCGTGCGTACGTCGATCGTGTGGCGACGTGCGGGACCAGCAGCGAGCTGAGTGCCTG
**Q.** Does B5 bind (HIS-NF-YB1)?
**A.** Result: no binding

B6: Wx promoter probe 3 (dsDNA)
DNA 1: CGTAATTCCAAGTTCTTTTTTTTTTGTCAGCACGTACAAGCAGCCGCTAGCCTCGCCCTG
DNA 2: CAGGGCGAGGCTAGCGGCTGCTTGTACGTGCTGACAAAAAAAAAAGAACTTGGAATTACG
**Q.** Does B6 bind (HIS-NF-YB1)?
**A.** Result: no binding
